{"source": "paper PMC12137173", "about": "“Cdc48 plays a crucial role in redox homeostasis through dynamic reshaping of its interactome during early stationary phase” (Redox Biology, 2025)", "binders": {"B1": {"name": "Cdc48-NTD-WT (domain or fragment)", "chain": "MGEEHKPLLDASGVDPREEDKTATAILRRKKKDNMLLVDDAINDDNSVIAINSNTMDKLELFRGDTVLVKGKKRKDTVLIVLIDDELEDGACRINRVVRNNLRIRLGDLVTIHPCPDIKYATRISVLPIADTIEGITGNLFDVFLKPYFVEAYRPVRKGDHFVVRGGMRQVEFKVVDVEPEEYAVVAQDTIIHWEGEPINREDEENNMN", "modifications": "Construct limits are not printed. Taken by convention as the equivalent of human p97 N domain 1-199, using the +10 offset shown by Cys209 hVCP = Cys219 Cdc48."}}, "target": "T1, Shp1/Ubx1 (purified) (S. cerevisiae, UniProt P34223 1-423)", "T1 construct": "Shp1/Ubx1, UBX-family cofactor of Cdc48, S. cerevisiae; also called Shp1/Uxb1; source: purified", "T1 sequence (looked up)": "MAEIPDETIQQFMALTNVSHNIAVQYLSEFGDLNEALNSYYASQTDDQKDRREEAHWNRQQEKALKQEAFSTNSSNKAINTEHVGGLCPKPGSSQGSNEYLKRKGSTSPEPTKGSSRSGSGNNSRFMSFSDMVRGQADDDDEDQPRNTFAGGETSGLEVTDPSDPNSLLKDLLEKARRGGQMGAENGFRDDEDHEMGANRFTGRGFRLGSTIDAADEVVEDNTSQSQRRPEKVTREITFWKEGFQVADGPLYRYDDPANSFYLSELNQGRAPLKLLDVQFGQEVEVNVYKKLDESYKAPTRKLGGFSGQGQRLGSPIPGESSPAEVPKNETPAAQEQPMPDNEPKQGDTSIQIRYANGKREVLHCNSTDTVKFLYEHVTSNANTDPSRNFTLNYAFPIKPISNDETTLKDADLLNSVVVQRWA", "assay": "ITC; 25 °C; 220 μM Shp1 injected into 16 μM Cdc48-NTD (WT or C115S); 2 μL injections, 150 s spacing; Malvern MicroCal PEAQ-ITC", "settings": "both partners purified", "data": [{"binder": "B1", "values": [{"measurement": "Kd", "result": 14.2, "unit": "µM"}]}]}
